Test results from patent publication US20180193454A1 (IMMUNEXT, published 2018).

T1: human CD154 (human, UniProt P29965 113-261, limits assumed)
T1 construct: also called CD154 antigen; CD40L
T1 sequence (looked up): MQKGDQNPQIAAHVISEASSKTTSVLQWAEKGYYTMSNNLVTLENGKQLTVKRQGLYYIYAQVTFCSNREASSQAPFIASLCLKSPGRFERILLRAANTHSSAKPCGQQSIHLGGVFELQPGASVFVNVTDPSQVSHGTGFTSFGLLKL

T2: CD154 expressed on cells (CD154 expressing Jurkat cells; T cell CD154) (UniProt P29965 1-261, limits assumed)
T2 construct: whole, on cells; also called CD154 (expressed on Jurkat cells)
T2 sequence (looked up): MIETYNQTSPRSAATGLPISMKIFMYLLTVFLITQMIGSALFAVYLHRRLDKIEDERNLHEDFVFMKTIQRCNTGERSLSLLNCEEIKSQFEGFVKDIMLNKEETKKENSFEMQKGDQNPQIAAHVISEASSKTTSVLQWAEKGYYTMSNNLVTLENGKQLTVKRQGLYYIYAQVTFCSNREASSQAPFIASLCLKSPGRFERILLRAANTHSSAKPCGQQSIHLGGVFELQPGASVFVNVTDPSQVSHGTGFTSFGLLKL


Tests used:
human CD154 [1] = target: T1, human CD154; assay: SPR, Biacore 3000, 25 C; antibody immobilized, CD154 antigen flowed over; average n = 6
Protocol: (§1) Binding experiments were performed on Biacore […] at 25° C. […] Binding of antigen to the tested antibodies was monitored in real time. From the observed kₒₙ, the koff and KD was determined for each variant.
(§2) Scoring analysis was performed using specific analyte concentrations. At the tested concentration, binding should be observed even if the ligand binding affinity is relatively weak. Full kinetics may be performed by known methods. For the molecular interactions with fast off rate, steady state kinetics may be used to determine the KD value.

[2] = target: T2, CD154 expressed on cells (CD154 …); assay: binding to CD40L (CD154) expressing Jurkat cells, readout % normalized mean MFI (panel title 'CD40L Jurkat Binding'; legend paragraph 14 calls it a BIAcore assay)
human CD154 [3] = target: T1, human CD154; assay: SPR, Biacore 3000, 25 C; antibody immobilized, CD154 antigen flowed over; average n = 6; exponent sign is a misprint in the cell ('+04'); value taken as E-04, as fixed by the same row's KD x Ka (3.62E-11 x 4.11E+06 = 1.49E-04)
Protocol: as §1, §2

[4] = target: T2, CD154 expressed on cells (CD154 …); assay: binding to CD154 expressing Jurkat cells (legend calls it BIAcore binding assays), FIG. 3

Binder | Fold improvement in KD (compared to IDEC131) (human CD154 [1]) [fold] | Kd (human CD154 [1]) [nM] | koff (human CD154 [1]) [s⁻¹] | kon (human CD154 [1]) [M⁻¹ s⁻¹] | EC50 (read off the curve) [2] [nM] | koff (human CD154 [3]) [s⁻¹] | fold increase in binding affinity compared to IDEC-131 [4] [fold]
IDEC-131, humanized anti-human CD154 IgG1 antibody (antibody, V domains shown, Humanized human IgG1 derived from mouse antibody 24-31) VH: EVQLQESGPGLVKPSETLSLTCTVSGDSITNGFWIWIRKPPGNKLEYMGYISYSGSTYYNPSLKSRISISRDTSKNQFSLKLSSVTAADTGVYYCACRSYGRTPYYFDFWGQGTTLTVSS VL: DIVMTQSPSFLSASVGDRVTITCKASQNVITAVAWYQQKPGKSPKLLIYSASNRYTGVPDRFSGSGSGTDFTLTISSLQPEDFADYFCQQYNSYPYTFGGGTKLEIK | 1 | 0.151 | 0.000525 | 3.47e+06 | ~4 | – | –
variant 29, humanized anti-human CD154 antibody derived from IDEC-131 (antibody, V domains shown) VH: EVQLQESGPGLVKPSETLSLTCTVSGDSITNGFWIWIRKPPGNKLEYMGYISYSGSTYYNPSLKSRISISRDTSKNQFSLKLSSVTAADTGVYYCAYRSYGRTPYYFDYWGQGTTLTVSS VL: DIVMTQSPSFLSASVGDRVTITCKGNQPLGHAVAWYQQKPGKSPKLLIYSASNRYTGVPDRFSGSGSGTDFTLTISSLQPEDFADYFCQQYDDYPYTFGGGTKLEIK | 4.2 | 0.0344 | 0.000133 | 3.86e+06 | – | – | –
variant 25, humanized anti-human CD154 antibody derived from IDEC-131 (antibody, V domains shown) VH: EVQLQESGPGLVKPSETLSLTCTVSGDSITNGFWIWIRKPPGNKLEYMGYISYSGSTYYNPSLKSRISISRDTSKNQFSLKLSSVTAADTGVYYCAYRSYGRTPYYFDYWGQGTTLTVSS VL: DIVMTQSPSFLSASVGDRVTITCKASQNLNHAVAWYQQKPGKSPKLLIYSASNRYTGVPDRFSGSGSGTDFTLTISSLQPEDFADYFCQQYDDYPYTFGGGTKLEIK | 3.9 | 0.0362 | – | 4.11e+06 | – | 0.000149 | –
variant 26, humanized anti-human CD154 antibody derived from IDEC-131 (antibody, V domains shown) VH: EVQLQESGPGLVKPSETLSLTCTVSGDSITNGFWIWIRKPPGNKLEYMGYISYSGSTYYNPSLKSRISISRDTSKNQFSLKLSSVTAADTGVYYCAYRSYGRTPYYFDYWGQGTTLTVSS VL: DIVMTQSPSFLSASVGDRVTITCKASQHLGTAVAWYQQKPGKSPKLLIYSASNRYTGVPDRFSGSGSGTDFTLTISSLQPEDFADYFCQQYDDYPYTFGGGTKLEIK | 2.5 | 0.0576 | – | 2.03e+06 | – | – | –
variant 24, humanized anti-human CD154 antibody derived from IDEC-131 (antibody, V domains shown) VH: EVQLQESGPGLVKPSETLSLTCTVSGDSITNGFWIWIRKPPGNKLEYMGYISYSGSTYYNPSLKSRISISRDTSKNQFSLKLSSVTAADTGVYYCAYRSYGRTPYYFDYWGQGTTLTVSS VL: DIVMTQSPSFLSASVGDRVTITCKAPQNLGTAVAWYQQKPGKSPKLLIYSASNRYTGVPDRFSGSGSGTDFTLTISSLQPEDFADYFCQQYDDYPYTFGGGTKLEIK | 4.9 | 0.0364 | 0.000135 | 3.7e+06 | – | – | –
variant 23, humanized anti-human CD154 antibody derived from IDEC-131 (antibody, V domains shown, also called combination #23) VH: EVQLQESGPGLVKPSETLSLTCTVSGDSITNGFWIWIRKPPGNKLEYMGYISYSGSTYYNPSLKSRISISRDTSKNQFSLKLSSVTAADTGVYYCAYRSYGRTPYYFDYWGQGTTLTVSS VL: DIVMTQSPSFLSASVGDRVTITCKGSSPLGHAVAWYQQKPGKSPKLLIYSASNRYTGVPDRFSGSGSGTDFTLTISSLQPEDFADYFCQQYDDYPYTFGGGTKLEIK | 4.2 | 0.0421 | 0.000141 | 3.35e+06 | – | – | –

The remaining binders from weak to strong by Kd (human CD154 [1]), led by results:

Fold improvement in KD (compared to IDEC131) (human CD154 [1]) [fold] | Kd (human CD154 [1]) [nM] | koff (human CD154 [1]) [s⁻¹] | kon (human CD154 [1]) [M⁻¹ s⁻¹] | EC50 (read off the curve) [2] [nM] | koff (human CD154 [3]) [s⁻¹] | fold increase in binding affinity compared to IDEC-131 [4] [fold] | Binder
4.8 | 0.0341 | 0.000123 | 3.61e+06 | – | – | – | variant 31, humanized anti-human CD154 antibody derived from IDEC-131 (antibody, V domains shown) VH: EVQLQESGPGLVKPSETLSLTCTVSGDSITNGFWIWIRKPPGNKLEYMGYISYSGSTYYNPSLKSRISISRDTSKNQFSLKLSSVTAADTGVYYCAYRSYGRTPYYFDYWGQGTTLTVSS VL: DIVMTQSPSFLSASVGDRVTITCKANQPLGHAVAWYQQKPGKSPKLLIYSASNRYTGVPDRFSGSGSGTDFTLTISSLQPEDFADYFCQQYDDYPYTFGGGTKLEIK
4.5 | 0.0336 | 0.00012 | 3.58e+06 | – | – | – | variant 27, humanized anti-human CD154 antibody derived from IDEC-131 (antibody, V domains shown) VH: EVQLQESGPGLVKPSETLSLTCTVSGDSITNGFWIWIRKPPGNKLEYMGYISYSGSTYYNPSLKSRISISRDTSKNQFSLKLSSVTAADTGVYYCAYRSYGRTPYYFDYWGQGTTLTVSS VL: DIVMTQSPSFLSASVGDRVTITCKASQHLGHAVAWYQQKPGKSPKLLIYSASNRYTGVPDRFSGSGSGTDFTLTISSLQPEDFADYFCQQYDDYPYTFGGGTKLEIK
4.4 | 0.0329 | 0.00014 | 4.24e+06 | – | – | – | variant 30, humanized anti-human CD154 antibody derived from IDEC-131 (antibody, V domains shown) VH: EVQLQESGPGLVKPSETLSLTCTVSGDSITNGFWIWIRKPPGNKLEYMGYISYSGSTYYNPSLKSRISISRDTSKNQFSLKLSSVTAADTGVYYCAYRSYGRTPYYFDYWGQGTTLTVSS VL: DIVMTQSPSFLSASVGDRVTITCKAGHSLGTAVAWYQQKPGKSPKLLIYSASNRYTGVPDRFSGSGSGTDFTLTISSLQPEDFADYFCQQYDDYPYTFGGGTKLEIK
4.8 | 0.0315 | 0.000115 | 3.65e+06 | – | – | – | variant 28, humanized anti-human CD154 antibody derived from IDEC-131 (antibody, V domains shown) VH: EVQLQESGPGLVKPSETLSLTCTVSGDSITNGFWIWIRKPPGNKLEYMGYISYSGSTYYNPSLKSRISISRDTSKNQFSLKLSSVTAADTGVYYCAYRSYGRTPYYFDYWGQGTTLTVSS VL: DIVMTQSPSFLSASVGDRVTITCKAPSSLGHAVAWYQQKPGKSPKLLIYSASNRYTGVPDRFSGSGSGTDFTLTISSLQPEDFADYFCQQYDDYPYTFGGGTKLEIK
4.7 | 0.0289 | 0.000128 | 4.42e+06 | – | – | ~5 | INX021 (variant 21), humanized anti-human CD154 IgG1 antibody derived from IDEC-131 (antibody, V domains shown) VH: EVQLQESGPGLVKPSETLSLTCTVSGDSITNGFWIWIRKPPGNKLEYMGYISYSGSTYYNPSLKSRISISRDTSKNQFSLKLSSVTAADTGVYYCAYRSYGRTPYYFDYWGQGTTLTVSS VL: DIVMTQSPSFLSASVGDRVTITCKASSNLGHAVAWYQQKPGKSPKLLIYSASNRYTGVPDRFSGSGSGTDFTLTISSLQPEDFADYFCQQYDDYPYTFGGGTKLEIK
5.2 | 0.0262 | 0.000117 | 4.48e+06 | – | – | – | variant 22, humanized anti-human CD154 antibody derived from IDEC-131 (antibody, V domains shown) VH: EVQLQESGPGLVKPSETLSLTCTVSGDSITNGFWIWIRKPPGNKLEYMGYISYSGSTYYNPSLKSRISISRDTSKNQFSLKLSSVTAADTGVYYCAYRSYGRTPYYFDYWGQGTTLTVSS VL: DIVMTQSPSFLSASVGDRVTITCKASSNLGNAVAWYQQKPGKSPKLLIYSASNRYTGVPDRFSGSGSGTDFTLTISSLQPEDFADYFCQQYDDYPYTFGGGTKLEIK
